Laboratory results as given in PMC3542820.

Target: T1, Rfa2-His from WT cells (HT41), dephosphorylated G1 form (Candida albicans, UniProt Q59Z33 1-272)
T1 sequence: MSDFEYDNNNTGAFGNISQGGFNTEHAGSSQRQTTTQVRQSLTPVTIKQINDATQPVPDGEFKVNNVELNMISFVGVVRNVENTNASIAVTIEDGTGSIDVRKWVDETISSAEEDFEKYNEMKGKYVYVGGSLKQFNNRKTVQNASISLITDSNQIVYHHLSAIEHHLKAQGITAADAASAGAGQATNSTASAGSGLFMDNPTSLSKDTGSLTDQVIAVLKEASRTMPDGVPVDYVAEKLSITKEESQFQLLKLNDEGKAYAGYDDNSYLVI
Experiment: EMSA

B1: FITC-dsDNA 30 bp (dsDNA)
DNA 1: CCCCTCTCCTTCTTGGCCTCTTCCTTCCCC
DNA 2: GGGGAAGGAAGAGGCCAAGAAGGAGAGGGG
  binding result: binds
